Assay [1] deals with T1, human GIP receptor (human, UniProt P48546 22-466).
T1 sequence (looked up): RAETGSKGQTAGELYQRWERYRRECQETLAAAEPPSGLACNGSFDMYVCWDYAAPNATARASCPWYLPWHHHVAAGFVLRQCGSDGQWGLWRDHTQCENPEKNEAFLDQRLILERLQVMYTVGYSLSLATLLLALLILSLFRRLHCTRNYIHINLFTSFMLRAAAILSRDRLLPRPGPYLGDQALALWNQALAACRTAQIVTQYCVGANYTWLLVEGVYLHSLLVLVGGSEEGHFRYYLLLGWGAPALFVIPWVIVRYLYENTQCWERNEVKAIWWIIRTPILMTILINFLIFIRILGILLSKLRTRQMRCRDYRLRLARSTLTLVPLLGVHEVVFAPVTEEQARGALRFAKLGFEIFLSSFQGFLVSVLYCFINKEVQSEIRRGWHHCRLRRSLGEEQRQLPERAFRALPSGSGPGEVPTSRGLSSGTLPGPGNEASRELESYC
In words: cell-based or functional assay.

The target of assay [2] is T1, human GIP receptor. Put plainly: cell-based or functional assay. This is another data set of the same source.

Where two headings read alike, the source gives them in different places. Where no end group is shown, it is not given here. The star is where a group is joined. C16 diacid = O=C(O)CCCCCCCCCCCCCCC(=O)*

B1: AT470 (peptide)
peptide: EGTFISDYSIAMDKIK(C16 diacid)QQDFVNWLLAQKGPSSGA-OH
modifications: N-terminus assumed
SMILES: CC[C@H](C)[C@H](NC(=O)[C@H](CO)NC(=O)[C@H](Cc1ccc(O)cc1)NC(=O)[C@H](CC(=O)O)NC(=O)[C@H](CO)NC(=O)[C@@H](NC(=O)[C@H](Cc1ccccc1)NC(=O)[C@@H](NC(=O)CNC(=O)[C@@H](N)CCC(=O)O)[C@@H](C)O)[C@@H](C)CC)C(=O)N[C@@H](C)C(=O)N[C@@H](CCSC)C(=O)N[C@@H](CC(=O)O)C(=O)N[C@@H](CCCCN)C(=O)N[C@H](C(=O)N[C@@H](CCCCNC(=O)CCCCCCCCCCCCCCC(=O)O)C(=O)N[C@@H](CCC(N)=O)C(=O)N[C@@H](CCC(N)=O)C(=O)N[C@@H](CC(=O)O)C(=O)N[C@@H](Cc1ccccc1)C(=O)N[C@H](C(=O)N[C@@H](CC(N)=O)C(=O)N[C@@H](Cc1c[nH]c2ccccc12)C(=O)N[C@@H](CC(C)C)C(=O)N[C@@H](CC(C)C)C(=O)N[C@@H](C)C(=O)N[C@@H](CCC(N)=O)C(=O)N[C@@H](CCCCN)C(=O)NCC(=O)N1CCC[C@H]1C(=O)N[C@@H](CO)C(=O)N[C@@H](CO)C(=O)NCC(=O)N[C@@H](C)C(=O)O)C(C)C)[C@@H](C)CC
On to B1, for which, in assay [1], the “cAMP antagonism” value turned out to be 14 nM, the “cAMP antagonism % inhib” value turned out to be 100% and the cAMP antagonism log is -7.8 log M. Further, in assay [2], the “cAMP agonism % Emax” value came to 0%, the “cAMP antagonism” value amounted to 20 nM, the “cAMP antagonism % inhib” value came out at 91% and the “cAMP antagonism pIC50” value was 7.7.

B2: AT469 (peptide)
peptide: EGTFISDYSIAMDKIK(C16 diacid)QQDFVNWLLAQKGPSSGAP-OH
modifications: N-terminus assumed
SMILES: CC[C@H](C)[C@H](NC(=O)[C@H](CO)NC(=O)[C@H](Cc1ccc(O)cc1)NC(=O)[C@H](CC(=O)O)NC(=O)[C@H](CO)NC(=O)[C@@H](NC(=O)[C@H](Cc1ccccc1)NC(=O)[C@@H](NC(=O)CNC(=O)[C@@H](N)CCC(=O)O)[C@@H](C)O)[C@@H](C)CC)C(=O)N[C@@H](C)C(=O)N[C@@H](CCSC)C(=O)N[C@@H](CC(=O)O)C(=O)N[C@@H](CCCCN)C(=O)N[C@H](C(=O)N[C@@H](CCCCNC(=O)CCCCCCCCCCCCCCC(=O)O)C(=O)N[C@@H](CCC(N)=O)C(=O)N[C@@H](CCC(N)=O)C(=O)N[C@@H](CC(=O)O)C(=O)N[C@@H](Cc1ccccc1)C(=O)N[C@H](C(=O)N[C@@H](CC(N)=O)C(=O)N[C@@H](Cc1c[nH]c2ccccc12)C(=O)N[C@@H](CC(C)C)C(=O)N[C@@H](CC(C)C)C(=O)N[C@@H](C)C(=O)N[C@@H](CCC(N)=O)C(=O)N[C@@H](CCCCN)C(=O)NCC(=O)N1CCC[C@H]1C(=O)N[C@@H](CO)C(=O)N[C@@H](CO)C(=O)NCC(=O)N[C@@H](C)C(=O)N1CCC[C@H]1C(=O)O)C(C)C)[C@@H](C)CC
Take B2: in assay [1], the “cAMP antagonism” value is 3 nM, the “cAMP antagonism % inhib” value is 90% and the cAMP antagonism log is -8.5 log M. In assay [2], the “cAMP agonism % Emax” value came out at 0%, the “cAMP antagonism” value was 3.8 nM, the “cAMP antagonism % inhib” value was 93% and the “cAMP antagonism pIC50” value amounted to 8.4.

The values above are taken from patent US20220298218A1 (ANTAG THERAPEUTICS, published 2022).
